Changes are numbered by the printed parent chain. In names and notes the source's numbering stands.
B1: GDAP1Δ303–358 R120Q (domain or fragment, human, UniProt Q8TB36-1 1-302, looked up)
chain: MAERQEEQRGSPPLRAEGKADAEVKLILYHWTHSFSSQKVRLVIAEKALKCEEHDVSLPLSEHNEPWFMRLNSTGEVPVLIHGENIICEATQIIDYLEQTFLDERTPRLMPDKESMYYPQVQHYRELLDSLPMDAYTHGCILHPELTVDSMIPAYATTRIRSQIGNTESELKKLAEENPDLQEAYIAKQKRLKSKLLDHDNVKYLKKILDELEKVLDQVETELQRRNEETPEEGQQPWLCGESFTLADVSLAVTLHRLKFLGFARRNWGNGKRPNLETYYERVLKRKTFNKVLGHVNNILIS
notes: human GDAP1 lacking residues 303-358 (GDAP1Δ303–358) with the CMT-linked mutation R120Q; CMT disease variant; source: E. coli BL21(DE3), autoinduction, purified (Ni-NTA, TEV cleavage, reverse Ni-NTA, SEC); not shown: His6, N-terminal, cleaved
B2: GDAP1Δ303–358 R161H (domain or fragment, human, UniProt Q8TB36-1 1-302, looked up)
chain: B1 chain with Q120R, R161H
notes: human GDAP1 lacking residues 303-358 (GDAP1Δ303–358) with the CMT-linked mutation R161H; CMT disease variant; source: E. coli BL21(DE3), autoinduction, purified (Ni-NTA, TEV cleavage, reverse Ni-NTA, SEC); not shown: His6, N-terminal, cleaved
B3: GDAP1Δ303–358 R282H (domain or fragment, human, UniProt Q8TB36-1 1-302, looked up)
chain: B1 chain with Q120R, R282H
notes: human GDAP1 lacking residues 303-358 (GDAP1Δ303–358) with the CMT-linked mutation R282H; CMT disease variant; source: E. coli BL21(DE3), autoinduction, purified (Ni-NTA, TEV cleavage, reverse Ni-NTA, SEC); not shown: His6, N-terminal, cleaved
B4: GDAP1Δ303–358 H256R (domain or fragment, human, UniProt Q8TB36-1 1-302, looked up)
chain: B1 chain with Q120R, H256R
notes: human GDAP1 lacking residues 303-358 (GDAP1Δ303–358) with the CMT-linked mutation H256R; CMT disease variant; source: E. coli BL21(DE3), autoinduction, purified (Ni-NTA, TEV cleavage, reverse Ni-NTA, SEC); not shown: His6, N-terminal, cleaved
B5: GDAP1Δ303–358 A247V (domain or fragment, human, UniProt Q8TB36-1 1-302, looked up)
chain: B1 chain with Q120R, A247V
notes: human GDAP1 lacking residues 303-358 (GDAP1Δ303–358) with the CMT-linked mutation A247V; CMT disease variant; source: E. coli BL21(DE3), autoinduction, purified (Ni-NTA, TEV cleavage, reverse Ni-NTA, SEC); not shown: His6, N-terminal, cleaved
B6: GDAP1Δ319–358 R310Q (domain or fragment, human, UniProt Q8TB36-1 1-318, looked up)
chain: MAERQEEQRGSPPLRAEGKADAEVKLILYHWTHSFSSQKVRLVIAEKALKCEEHDVSLPLSEHNEPWFMRLNSTGEVPVLIHGENIICEATQIIDYLEQTFLDERTPRLMPDKESMYYPRVQHYRELLDSLPMDAYTHGCILHPELTVDSMIPAYATTRIRSQIGNTESELKKLAEENPDLQEAYIAKQKRLKSKLLDHDNVKYLKKILDELEKVLDQVETELQRRNEETPEEGQQPWLCGESFTLADVSLAVTLHRLKFLGFARRNWGNGKRPNLETYYERVLKRKTFNKVLGHVNNILISAVLPTAFQVAKKRAPK
notes: human GDAP1 lacking residues 319-358 (GDAP1Δ319–358) with the CMT-linked mutation R310Q; CMT disease variant; eluted as dimer (main peak) and monomer; source: E. coli BL21(DE3), autoinduction, purified (Ni-NTA, TEV cleavage, reverse Ni-NTA, SEC); not shown: His6, N-terminal, cleaved
B7: GDAP1Δ319–358 R310W (domain or fragment, human, UniProt Q8TB36-1 1-318, looked up)
chain: B6 chain with Q310W
notes: human GDAP1 lacking residues 319-358 (GDAP1Δ319–358) with the CMT-linked mutation R310W; CMT disease variant; eluted as monomer (highest peak) and dimer; source: E. coli BL21(DE3), autoinduction, purified (Ni-NTA, TEV cleavage, reverse Ni-NTA, SEC); not shown: His6, N-terminal, cleaved

Columns and labels:
[1] = target: wild-type GDAP1 (GDAP1Δ303–358) (human) (UniProt Q8TB36); experiment: batch-mode SAXS; concentration range 1–4 mg/ml, P12 beamline EMBL/DESY
[2] = target: the molecule itself; experiment: SEC-SAXS; variants in GDAP1Δ303–358; 100 μl at 1.7–36 mg/ml (maximum concentration for each variant) injected onto a BioSEC3-300 column, 25 mM HEPES pH 7.5, 300 mM NaCl, +15°C; top of the peak analysed
[3] = target: the molecule itself; experiment: SEC-SAXS; Arg310 mutants in GDAP1Δ319–358, at lower concentration than all the other mutants; BioSEC3-300 column, 25 mM HEPES pH 7.5, 300 mM NaCl, +15°C; two peaks (dimer and monomer)

Molecule | stoichiometry N [2] | also measured
wild-type GDAP1 (GDAP1Δ303–358) (from UniProt Q8TB36-1 1-302) (domain or fragment) | – | stoichiometry N [1]: 2
B1 | 2 | –
B2 | 2 | –
B3 | 2 | –
B4 | 2 | –
B5 | 2 | –
B6 | – | stoichiometry N [3]: 2
B7 | – | stoichiometry N [3]: 2

From PMC10104300, “Conserved intramolecular networks in GDAP1 are closely connected to CMT-linked mutations and protein stability” (PLOS ONE, 2023)
